Experimental data from PMC6358605, “MANF antagonizes nucleotide exchange by the endoplasmic reticulum chaperone BiP” (Nature Communications, 2019).

What was measured:
[1] = target: the molecule itself; assay: crystal structure; lidless BiP^V461F (apo) crystals from a co-crystallisation mix with MANF or SAP; only BiP^V461F present in the crystal; contacts between protomers of the lattice
BiP NBD (28–413) = target: T1, BiP NBD (28–413) (Chinese hamster, UniProt G3I8R9 28-413); assay: BLI; sequential dipping: streptavidin biosensors loaded with biotinylated MANF, SAP or SAPLIP, dipped in BiP SBD, buffer, BiP NBD with 2 mM ATP, 2 mM ATP, BiP NBD with 2 mM ADP, 2 mM ADP; HKMT buffer; conditions: both partners purified
T1 construct: UK2039 is named for the crystals and the MABA-ADP assay; also called UK2039; source: E. coli M15, purified (nickel chelating, tag cleavage, anion exchange, SEC); not shown: His6-Smt3, N-terminal, cleaved
T1 sequence (G3I8R9 28-413): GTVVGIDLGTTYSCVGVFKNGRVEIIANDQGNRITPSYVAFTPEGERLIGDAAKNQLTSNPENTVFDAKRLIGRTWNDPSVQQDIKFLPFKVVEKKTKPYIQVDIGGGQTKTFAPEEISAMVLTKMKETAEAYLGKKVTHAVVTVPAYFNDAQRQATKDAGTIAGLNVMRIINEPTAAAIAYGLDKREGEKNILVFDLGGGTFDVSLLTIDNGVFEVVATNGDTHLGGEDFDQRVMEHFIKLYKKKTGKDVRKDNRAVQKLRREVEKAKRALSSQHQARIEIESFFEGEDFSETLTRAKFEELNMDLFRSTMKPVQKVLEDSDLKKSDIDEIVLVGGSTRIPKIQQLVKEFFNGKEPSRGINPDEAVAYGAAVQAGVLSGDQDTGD

B1: lidless Chinese hamster BiP^V461F (28–549) (domain or fragment)
chain: not shown
notes: BiP, Chinese hamster, residues 28-549 (C-terminal alpha-helical lid truncated), V461F; also called BiP^V461F (apo); UK2121; source: E. coli M15, purified (nickel chelating, anion exchange, SEC)
binding result [1]: binds

B2: biotinylated AviTag-MANF^22–179 (natural protein, mouse, UniProt Q9CXI5 22-179, looked up)
chain: LRPGDCEVCISYLGRFYQDLKDRDVTFSPATIEEELIKFCREARGKENRLCYYIGATDDAATKIINEVSKPLAHHIPVEKICEKLKKKDSQICELKYDKQIDLSTVDLKKLRVKELKKILDDWGEMCKGCAEKSDYIRKINELMPKYAPKAASARTDL
modifications: biotin (on the AviTag, by E. coli BirA)
notes: mesencephalic astrocyte-derived neurotrophic factor (MANF), mouse, residues 22-179; Ligand on streptavidin BLI sensors; also called mMANF; UK1987; source: E. coli Origami B (DE3), purified (GSTrap, TEV cleavage), biotinylated in vitro with BirA; not shown: GST, N-terminal, cleaved; AviTag, N-terminal, kept
binding result (BiP NBD (28–413)): binds

B3: biotinylated AviTag-SAP^119–179 (domain or fragment, mouse, UniProt Q9CXI5 119-179, looked up)
chain: DKQIDLSTVDLKKLRVKELKKILDDWGEMCKGCAEKSDYIRKINELMPKYAPKAASARTDL
modifications: also: biotin on AviTag lysine (tag not in chain)
notes: C-terminal SAP (SAF-A/B, Acinus, and PIAS) domain of MANF, mouse, residues 119-179; also called SAP domain of MANF; UK2005; source: E. coli Origami B (DE3), purified (GSTrap, TEV cleavage), biotinylated in vitro with BirA; not shown: GST, N-terminal, cleaved; AviTag, N-terminal, kept
binding result (BiP NBD (28–413)): binds
